Measurements reported in patent US20240116985A1 (published 2024).
Starred links: 1 amine or outer side, 2 acyl side, 3 side chain; linkers in the order of their positions; H or OH if unused. Positions of bridges follow the written chain, without caps; N, C: chain ends. Non-standard residues stand in square brackets, D forms with d. Primed or numbered codes have the meaning given here. B5(10) = 2-amino-2-(pent-4-en-1-yl)hept-6-enoic acid, bis(4-pentenyl)glycine, stitching residue bearing both staples, C=CCCCC(CCCC=C)(N[*:1])C(=O)[*:2]; SeN″ = (S)-5-(((allyloxy)carbonyl)(methyl)amino)-2-amino-2-methylpentanoic acid (stapling residue), C=CCOC(=O)N(C)CCC[C@](C)(N[*:1])C(=O)[*:2]; B5(4) = 2,2-bis(4-pentenyl)glycine = 2-amino-2-(pent-4-en-1-yl)hept-6-enoic acid (stitching residue), C=CCCCC(CCCC=C)(N[*:1])C(=O)[*:2]; B5(5) = 2,2-bis(4-pentenyl)glycine, 2-amino-2-(pent-4-en-1-yl)hept-6-enoic acid (stitching residue), C=CCCCC(CCCC=C)(N[*:1])C(=O)[*:2]; SdN = (S)-4-(((allyloxy)carbonyl)(methyl)amino)-2-amino-2-methylbutanoic acid, C=CCOC(=O)N(C)CC[C@](C)(N[*:1])C(=O)[*:2]; PyrS = (S)-1-((allyloxy)carbonyl)-3-aminopyrrolidine-3-carboxylic acid, C=CCOC(=O)N1CC[C@@](N[*:1])(C(=O)[*:2])C1; B5(28) = 2,2-bis(4-pentenyl)glycine, C=CCCCC(CCCC=C)(N[*:1])C(=O)[*:2]; Phe(3,5-F2) = N[C@@H](Cc1cc(F)cc(F)c1)C(=O)O; S7 = C[C@@](CCCCCC=[*:3])(N[*:1])C(=O)[*:2]; Phe(4-F) = N[C@@H](Cc1ccc(F)cc1)C(=O)O; αAllylPro = C=CC[C@@]1(C(=O)O)CCCN1; R8 = C=CCCCCCC[C@@](C)(N)C(=O)O; Aad = N[C@@H](CCCC(=O)O)C(=O)O; S8 = C=CCCCCCC[C@](C)(N)C(=O)O; Aib = CC(C)(N)C(=O)O

T1: full-length beta-Catenin (Uniprot ID P35222) (Homo sapiens (Human), UniProt P35222 2-781)
T1 construct: also called B-Catenin; bCat
T1 sequence: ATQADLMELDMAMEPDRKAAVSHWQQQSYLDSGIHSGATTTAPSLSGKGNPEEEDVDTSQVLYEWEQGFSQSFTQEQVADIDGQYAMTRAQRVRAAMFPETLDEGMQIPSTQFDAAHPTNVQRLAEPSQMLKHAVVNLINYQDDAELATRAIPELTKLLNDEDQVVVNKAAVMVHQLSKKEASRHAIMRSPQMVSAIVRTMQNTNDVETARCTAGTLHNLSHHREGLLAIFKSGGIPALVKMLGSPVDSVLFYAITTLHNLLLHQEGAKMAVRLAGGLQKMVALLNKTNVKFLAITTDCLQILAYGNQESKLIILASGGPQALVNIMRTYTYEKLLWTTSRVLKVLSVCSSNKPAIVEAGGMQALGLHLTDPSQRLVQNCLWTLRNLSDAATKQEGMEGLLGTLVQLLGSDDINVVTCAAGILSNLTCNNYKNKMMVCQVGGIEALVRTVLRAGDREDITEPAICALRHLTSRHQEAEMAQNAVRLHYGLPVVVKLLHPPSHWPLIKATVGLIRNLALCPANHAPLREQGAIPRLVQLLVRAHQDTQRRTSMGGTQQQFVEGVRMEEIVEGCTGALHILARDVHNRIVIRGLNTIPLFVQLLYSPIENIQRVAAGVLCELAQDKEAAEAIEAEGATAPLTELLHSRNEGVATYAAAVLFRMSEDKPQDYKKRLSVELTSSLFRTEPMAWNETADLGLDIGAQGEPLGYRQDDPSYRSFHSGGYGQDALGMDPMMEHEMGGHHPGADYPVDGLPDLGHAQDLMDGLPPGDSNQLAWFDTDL

T2: full-length beta-Catenin (Uniprot ID P35222) (Homo sapiens (Human), UniProt P35222 2-781)
T2 construct: The AlphaScreen assay used a Histidine (Nickel Chelate) detection kit, so a His tag is likely, but no tag is described; also called B-Catenin; bCat
T2 sequence: T1 sequence

T3: full-length beta-Catenin (Uniprot ID P35222) (Homo sapiens (Human), UniProt P35222 2-781)
T3 construct: Used full-length in both the FP and the AlphaScreen assay; also called B-Catenin; bCat
T3 sequence: T1 sequence

B1: I-131 (peptide)
peptide: Ac-[αAllylPro]DA[B5(4)]DEAAFV[SeN″]FWQ-NH2
modifications: staple 1-4, 4-11
notes: Stitched (two-staple) peptide composition; same description as I-130, separate later-eluting HPLC peak (staple isomer)
B2: I-123 (peptide)
peptide: Ac-[αAllylPro]DA[B5(4)]DEAAFV[S8]FWQ-NH2
modifications: staple 1-4, 4-11
notes: Stitched (two-staple) peptide composition
B3: I-125 (peptide)
peptide: XDAXDNAAFVXFWQ
modifications: not fully specified; as printed: Ac-PL3-Asp-Ala-B5-Asp-Asn-Ala-Ala-Phe-Val-S8-Phe-Trp-Gln-NH2; staples PL3(1)-B5(4) and B5(4)-S8(11)
notes: as for B2
B4: I-127 (peptide)
peptide: Ac-[αAllylPro]DA[B5(5)]DQAAFV[S8]FWQ-NH2
modifications: staple 1-4, 4-11
notes: as for B2
B5: I-129 (peptide)
peptide: Ac-[αAllylPro]DA[B5(10)]D[Aad]AAFV[S8]FWQ-NH2
modifications: staple 1-4, 4-11
notes: as for B2
B6: I-133 (peptide)
peptide: XDAXDEAAFVXFWX
modifications: not fully specified; as printed: Ac-PL3-Asp-Ala-B5-Asp-Glu-Ala-Ala-Phe-Val-S8-Phe-Trp-Aib-NH2; staples PL3(1)-B5(4) and B5(4)-S8(11)
notes: as for B2
B7: I-134 (peptide)
peptide: Ac-[αAllylPro]DA[B5(28)]DEAAFV[S8]FW[Aib]-NH2
modifications: staple 1-4, 4-11
notes: as for B2
B8: I-132 (peptide)
peptide: Ac-[αAllylPro]DA[B5(4)]DEAAFV[S7]FWQ-NH2
modifications: staple 1-4, 4-11
notes: as for B2
B9: I-219 (peptide)
peptide: Ac-[αAllylPro]DA[B5(4)]DEAA[Phe(3,5-F2)]V[S8]FWQ-NH2
modifications: staple 1-4, 4-11
notes: Stapled peptide composition; also called Ac-PL3-Asp-Ala-B5-Asp-Glu-Ala-Ala-35FF-Val-S8-Phe-Trp-Gln-NH2
B10: I-217 (peptide)
peptide: Ac-[αAllylPro]DA[B5(4)]DEAAXV[S8]FWQ-NH2
modifications: staple 1-4, 4-11; not fully specified (residue 9); printed as Ac-PL3-Asp-Ala-B5-Asp-Glu-Ala-Ala-MeTyr-Val-S8-Phe-Trp-Gln-NH2
notes: Stapled peptide composition; also called Ac-PL3-Asp-Ala-B5-Asp-Glu-Ala-Ala-MeTyr-Val-S8-Phe-Trp-Gln-NH2
B11: I-218 (peptide)
peptide: Ac-[αAllylPro]DA[B5(4)]DEAAXV[S8]FWQ-NH2
modifications: staple 1-4, 4-11; not fully specified (residue 9); printed as Ac-PL3-Asp-Ala-B5-Asp-Glu-Ala-Ala-MeTyr-Val-S8-Phe-Trp-Gln-NH2
notes: as for B10
B12: I-55 (peptide)
peptide: Ac-[αAllylPro]DA[B5(4)]DDAAFV[SdN]FWQ-NH2
modifications: staple 1-4, 4-11
notes: Stapled (stitched) peptide; also called Ac-PL3-Asp-Ala-B5-Asp-Asp-Ala-Ala-Phe-Val-SdN-Phe-Trp-Gln-NH2
B13: I-78 (peptide)
peptide: Ac-FDA[R8]DDAA[Phe(4-F)]V[PyrS]FWQ-NH2
modifications: staple 4-11
notes: Stapled peptide; also called Ac-Phe-Asp-Ala-R8-Asp-Asp-Ala-Ala-4FF-Val-PyrS-Phe-Trp-Gln-NH2

molecular target: T1, full-length beta-Catenin (Uniprot ID …); test: fluorescence polarization competition; 5FAM-TCF4(10-53) probe with full-length beta-catenin
Experimental: (§1) The plate was incubated protected from light for 60 minutes at 20° C. prior to read. Reads were performed on a CLARIOstar plate reader (BMG Labtech) in duplicate, and data were fitted to a 1:1 binding model with hill slope using an in-house script. All provided concentrations are final concentrations.

Binder | EC50 [nM]
B1 | 2160
B2 | 2110
B3 | 3060
B4 | 4840
B5 | 1980
B6 | 5000
B7 | 2700
B8 | 5000

molecular target: T2, full-length beta-Catenin (Uniprot ID …); test: fluorescence polarization competition: full-length beta-catenin + 5FAM-TCF4(10-53) probe, peptide titrated
Experimental: as §1

Binder | EC50 [nM]
B9 | 2860
B10 | 1960
B11 | 1960

molecular target: T1, full-length beta-Catenin (Uniprot ID …); test: Alphascreen competition; biotin-TCF4(10-53) probe with full-length beta-catenin
Experimental: as §1, with “Equal volume of the titrated peptide was added to the” for “The”, “and” for “was”, “incubated for 15 minutes at 20° C. Then 4 uL of donor and 4 uL acceptor beads at 10 ug/mL were added to the plate, for a 16 uL reaction pool and” for “incubated”

Binder | EC50 [nM]
B1 | 400
B2 | 444
B3 | 569
B4 | 552
B5 | 83
B8 | 5090

molecular target: T2, full-length beta-Catenin (Uniprot ID …); test: AlphaScreen competition: full-length beta-catenin + biotin-TCF4(10-53) probe, peptide titrated
Experimental: as §1, with “Equal volume of the titrated peptide was added to the” for “The”, “and” for “was”, “incubated for 15 minutes at 20° C. Then 4 uL of donor and 4 uL acceptor beads at 10 ug/mL were added to the plate, for a 16 uL reaction pool and” for “incubated”

Binder | EC50 [nM]
B9 | 131
B10 | 90
B11 | 90

molecular target: T3, full-length beta-Catenin (Uniprot ID …); test: AlphaScreen competition; full-length beta-catenin, biotin-TCF4(10-53) probe
Experimental: as §1, with “Equal volume of the titrated peptide was added to the” for “The”, “and” for “was”, “incubated for 15 minutes at 20° C. Then 4 uL of donor and 4 uL acceptor beads at 10 ug/mL were added to the plate, for a 16 uL reaction pool and” for “incubated”

Binder | EC50 [nM]
B12 | 2380
B13 | 7480

molecular target: T3, full-length beta-Catenin (Uniprot ID …); test: fluorescence polarization competition; full-length beta-catenin, 5FAM-TCF4(10-53) probe
Experimental: as §1

Binder | EC50 [nM]
B12 | 5000
B13 | 5000
